One may read the stoichiometry N as a count of units in the complex or per binding partner.

We go through one substance from PMC6200739.

For test [1], the target named is Flag-tagged LDHA containing a nuclear localization signal peptide. Put plainly: SEC. On the technique in general: SEC sorts molecules by how far they enter the pores of the column.
Test [2] shares this target. Put plainly: cross-linking.

For the substance “Flag-tagged LDHA containing a nuclear localization signal peptide (enzyme)”, the stoichiometry N in test [1] and in test [2] was 2 in each case.
